Patent publication US10745439B2, “Kinase substrates and methods of use thereof” (REGENTS OF THE UNIVERSITY OF MINNESOTA, priority 2017, dated 2020)
Ends that are not written are not given here. * marks the point of attachment. Biotin = O=C1N[C@H]2[C@H](CS[C@H]2CCCCC(=O)*)N1

Key:
Akt = Akt (Homo sapiens, UniProt P31749); test: in vitro time-course kinase assay with Akt and Aktide biosensor (MALDI/TOF/TOF-MS readout); type: biochemical; conditions: 15 nM kinase, 20 μM peptide, 100 μM ATP, 37° C., time points 0, 30, 60, 120 min; result after 2 hr
Procedure: FIG. 7. […] The abundance of the biosensor (labeled “Aktide”) and its phosphorylated version (labeled “phospho Aktide”) are shown over four different time points (0, 30, 60, 120 min) which represent the amount of time the peptide was incubated with the kinase.
The in vitro kinase assay was performed with Akt and Aktide biosensor (RRRRRSVDSHGGKbiotinGG (SEQ ID NO:11)). First, the kinase (15 nM final concentration) was pre-incubated in kinase reaction buffer (10 mM HEPES, 10 mM MgCl2, 0.125 ng/μL BSA, 100 μM adenosine triphosphate (ATP), pH 7.5) for 15 minutes. Then the substrate peptide, Aktide (20 μM final concentration), was added and the reaction was kept at 37° C. The reaction was monitored at different time points by removing 20 μL aliquots and quenching with 10 μL of 6 M urea at 0, 30, 60, and 120 minutes. The samples were then desalted with C18 zip tips according to the manufacturer's protocol and analyzed on an Applied Biosystems-Sciex 5800 MALDI/TOF/TOF-MS.

LKB1 = target: T1, LKB1 (Homo sapiens, UniProt Q15831); test: in vitro kinase assay screen with LKB1 and candidate biosensor peptides (LC ESI-MS readout); type: biochemical; conditions: 15 nM kinase, 20 μM peptide, 100 μM ATP, 37° C., 3 hr reaction
T1 sequence (Q15831 1-433): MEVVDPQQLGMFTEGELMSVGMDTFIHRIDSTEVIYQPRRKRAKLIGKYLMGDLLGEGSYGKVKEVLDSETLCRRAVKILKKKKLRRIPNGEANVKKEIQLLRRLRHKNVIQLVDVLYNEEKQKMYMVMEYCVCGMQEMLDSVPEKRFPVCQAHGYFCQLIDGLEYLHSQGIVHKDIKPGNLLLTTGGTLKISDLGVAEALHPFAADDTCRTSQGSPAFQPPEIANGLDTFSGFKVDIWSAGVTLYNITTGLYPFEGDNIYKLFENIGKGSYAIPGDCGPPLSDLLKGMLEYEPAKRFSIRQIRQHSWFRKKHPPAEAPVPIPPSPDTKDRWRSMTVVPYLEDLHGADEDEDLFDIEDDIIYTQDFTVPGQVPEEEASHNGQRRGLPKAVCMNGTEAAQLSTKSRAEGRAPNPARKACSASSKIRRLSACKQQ
T1 sequence (Q7RTN6 1-431 partner): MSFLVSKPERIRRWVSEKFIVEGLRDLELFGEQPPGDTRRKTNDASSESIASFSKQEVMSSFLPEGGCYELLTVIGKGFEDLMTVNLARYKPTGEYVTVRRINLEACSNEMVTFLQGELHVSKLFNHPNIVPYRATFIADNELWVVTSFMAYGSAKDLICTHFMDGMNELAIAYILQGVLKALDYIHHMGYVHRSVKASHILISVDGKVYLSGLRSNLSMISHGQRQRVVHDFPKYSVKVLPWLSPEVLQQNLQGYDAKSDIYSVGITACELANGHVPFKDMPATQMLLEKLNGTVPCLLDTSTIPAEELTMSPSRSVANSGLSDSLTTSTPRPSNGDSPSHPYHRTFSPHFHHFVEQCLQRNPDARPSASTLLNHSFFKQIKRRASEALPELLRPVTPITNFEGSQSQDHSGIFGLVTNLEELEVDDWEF
T1 sequence (Q9Y376 1-341 partner): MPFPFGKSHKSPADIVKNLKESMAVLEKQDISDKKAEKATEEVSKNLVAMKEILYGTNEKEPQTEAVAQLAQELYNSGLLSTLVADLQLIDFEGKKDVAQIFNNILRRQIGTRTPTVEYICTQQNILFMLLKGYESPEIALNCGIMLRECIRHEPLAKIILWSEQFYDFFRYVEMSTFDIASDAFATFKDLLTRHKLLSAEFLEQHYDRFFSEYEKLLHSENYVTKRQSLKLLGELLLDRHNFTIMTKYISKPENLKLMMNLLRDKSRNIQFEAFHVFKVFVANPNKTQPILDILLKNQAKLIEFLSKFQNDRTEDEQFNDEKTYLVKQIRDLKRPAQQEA
Procedure: FIGS. 8A-B. FIG. 8A. Results from an initial kinase assay with LKB1 testing candidate biosensor peptide substrate WHLQTWCGYGGKbiotinGG (SEQ ID NO:12). The data shown is the abundance of the peptide and its phosphorylated version (SEQ ID NO:14) after incubation with the kinase for 3 hr. FIG. 8B. Zoomed in version of the spectrum showing relative abundance.
The in vitro kinase assay screen was performed with LKB1 and the candidate biosensor sequence (WHLQTWCGYGGKbiotinGG (SEQ ID NO:12)). First the kinase, (15 nM final concentration), was pre-incubated in kinase reaction buffer (10 mM HEPES, 10 mM MgCl2, 0.125 ng/μL BSA, 100 μM adenosine triphosphate (ATP), pH 7.5) for 15 minutes. Then the substrate peptide, (20 μM final concentration), was added and the reaction was kept at 37° C. The reaction was quenched with 6 M urea and then the sample was desalted with C18 zip tips according to the manufacturer's protocol and analyzed on an Agilent 1200 series LC and Agilent 6130 quadrupole ESI-MS.

Akt, sequence (P31749 whole entry): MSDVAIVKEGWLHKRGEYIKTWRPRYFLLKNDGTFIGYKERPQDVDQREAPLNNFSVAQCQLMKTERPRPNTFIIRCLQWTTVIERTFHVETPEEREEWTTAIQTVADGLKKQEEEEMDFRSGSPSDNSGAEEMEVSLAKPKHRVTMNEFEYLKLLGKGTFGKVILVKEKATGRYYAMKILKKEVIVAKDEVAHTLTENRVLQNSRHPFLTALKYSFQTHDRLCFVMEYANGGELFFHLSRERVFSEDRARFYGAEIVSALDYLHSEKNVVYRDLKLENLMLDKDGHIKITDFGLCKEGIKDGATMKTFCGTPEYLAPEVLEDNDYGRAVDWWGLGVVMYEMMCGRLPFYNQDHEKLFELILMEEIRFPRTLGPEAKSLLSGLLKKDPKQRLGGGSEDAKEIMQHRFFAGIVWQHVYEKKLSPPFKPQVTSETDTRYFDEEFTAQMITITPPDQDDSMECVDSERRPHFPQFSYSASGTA

Substance | phosphorylation of the peptide substrate by Akt (conversion to phosphorylated product) (Akt) | phosphorylation of the peptide substrate by LKB1 (LKB1)
RRRRRSVDSHGGKbiotinGG (RRRRRSVDSHGGK(Biotin)GG) [artificial Akt substrate peptide biosensor with C-terminal -GGKbiotinGG tag] | Nearly complete conversion to phosphorylated product | 
WHLQTWCGYGGKbiotinGG (WHLQTWCGYGGK(Biotin)GG) [candidate LKB1 biosensor peptide substrate with C-terminal -GGKbiotinGG tag] |  | partially phosphorylated
